This test has as its target peptide-6 (SEQ ID NO. 15) (Mycobacterium tuberculosis, UniProt P9WPE7).

B1: VH2/VK3: humanized anti-peptide-6 IgG1; heavy chain variable region SEQ ID NO: 21, light chain variable region SEQ ID NO: 26 (antibody, V domains shown)
VH: QVTLKESGPALVKPTQTLTLTCSFSGFSLSTSNMGVGWIRQPAGKGLEWLLHILWNDSKYYNPALKSRLTISKDTYKNQVVLTMTNMDPVDTATYYCARMGGYYGNYGYYAMDYWGQGTLVTVSS
VL: QIVLTQSPATLSLSPGERATLSCTASSSVSSSYLHWYQQKPGKAPKLWIYSTSNLASGVPSRFSGSGSGTDYTLTISSLQPEDFATYYCHQYHRSPPTFGQGTKLEIK
modifications: IgG1 constant regions; VH2 amino acid sequence; VK3 amino acid sequence
Consider B1, for which the “binding to peptide-6 directly compared to VH2/VK2 on the same plate” value is on record as “marginally the best binding”.

The values above are taken from patent publication US8680241B2 (priority 2009, dated 2014).
